Measured values from patent US7541141B2, “Method of using estrogen-related receptor alpha (ERRα) status to determine prognosis, treatment strategy and predisposition to breast cancer, and method of using ERRα as a therapeutic target for the treatment of breast cancer” (Wisconsin Alumni Research Foundation, priority 1997, dated 2009).

How the values were obtained:
ERRα = target: T1, ERRα (Homo sapiens, UniProt P11474); conditions: cited from earlier work
T1 sequence (P11474 1-423): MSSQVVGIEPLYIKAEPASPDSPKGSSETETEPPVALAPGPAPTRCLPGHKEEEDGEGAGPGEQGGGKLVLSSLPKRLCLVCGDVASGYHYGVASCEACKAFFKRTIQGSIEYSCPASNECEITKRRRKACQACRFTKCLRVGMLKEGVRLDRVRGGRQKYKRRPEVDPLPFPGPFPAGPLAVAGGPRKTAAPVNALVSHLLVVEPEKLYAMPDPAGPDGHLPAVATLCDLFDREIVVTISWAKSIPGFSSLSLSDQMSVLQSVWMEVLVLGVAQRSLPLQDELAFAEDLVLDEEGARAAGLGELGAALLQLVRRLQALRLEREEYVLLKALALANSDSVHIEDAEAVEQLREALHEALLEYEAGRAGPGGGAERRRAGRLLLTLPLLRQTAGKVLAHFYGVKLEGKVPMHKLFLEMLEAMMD

ERRγ = ERRγ (Homo sapiens, UniProt P62508); conditions: cell-based assays; cited from earlier work
Chain of ERRγ (P62508 whole entry): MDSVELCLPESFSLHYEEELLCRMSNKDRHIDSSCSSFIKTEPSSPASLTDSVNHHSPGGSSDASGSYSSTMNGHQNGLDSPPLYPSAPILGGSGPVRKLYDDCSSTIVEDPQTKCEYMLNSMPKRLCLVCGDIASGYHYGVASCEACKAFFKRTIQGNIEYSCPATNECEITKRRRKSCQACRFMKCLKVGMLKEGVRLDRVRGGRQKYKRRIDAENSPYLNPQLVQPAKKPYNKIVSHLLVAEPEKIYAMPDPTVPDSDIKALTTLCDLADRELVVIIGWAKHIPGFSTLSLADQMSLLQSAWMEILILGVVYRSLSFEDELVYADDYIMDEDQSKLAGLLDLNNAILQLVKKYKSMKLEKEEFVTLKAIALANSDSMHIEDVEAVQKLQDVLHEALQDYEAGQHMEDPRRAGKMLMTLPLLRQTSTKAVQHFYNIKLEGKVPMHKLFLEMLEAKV

[1] = test system: ERE-dependent transcription in MCF-7 cells; assay: p3xERE-TK-luc luciferase reporter, transient transfection; assay type: cell-based, human
Experimental: (§1) Transient Transfections and Luciferase Assays: To assess the role ERRα plays in regulating transcription of an ERE-containing promoter, MCF-7 or HeLa cells grown in 12-well tissue culture plates were co-transfected in parallel with 0.5 μg of pTK-luc versus p3xERE-TK-luc along with the indicated amounts of the empty cloning vector pcDNA3.1, the ERRα1 expression plasmid pcDNA3.1-hERRα1, or mutant variants thereof. Transfections were performed with the aid of the TransIT LT1 transfection reagent (PanVera, Madison, Wis.) as previously described (35). To examine the effects of ER ligands, cells were maintained in stripped medium for 48 h before transfection and the addition of 17β-estradiol (E2) (Sigma) or the pure anti-estrogen ICI-182,780 (Astra Zeneca, London, UK) dissolved in ethanol and diluted in medium to obtain the indicated concentrations. Cells were harvested 48 h post-transfection, and lysates were assayed for luciferase activity normalized to protein concentration as previously described (36).
ERRα Represses Transcription in MCF-7 Cells: Because ERRα can interfere with the binding of ERα to this ERE, might it affect estrogen-responsive transcription? To answer this question, we co-transfected ERα-positive mammary MCF-7 cells in parallel with p3xERE-TK-luc, a reporter plasmid containing three tandem copies of this ERE (FIG. 14A) or the ERE-negative control plasmid, pTK-luc, together with 0.12 or 0.25 μg of the ERRα1 expression plasmid, pcDNA3.1-hERRα1, or the empty parental expression plasmid, pcDNA3.1. After incubation for 48 h in medium containing whole FBS, the cells were harvested and assayed for luciferase activity. The presence of the EREs conferred an about 150-fold increase in transcriptional activity above the level observed in the cells transfected with the ERE-negative reporter plasmid (FIG. 14B). […] Thus, ERRα inhibits the estrogen-responsive activation of transcription from this ERE-containing promoter in this ER-positive MCF-7 cell line.
ERRα Modulates Estrogen-responsiveness in MCF-7 Cells: To directly examine the effect of ERRα on the response to estrogen, MCF-7 cells were cultured in medium containing estrogen-free charcoal-stripped FBS and cotransfected as described above but in the absence or presence of E2. […] Once again, overexpression of ERRα repressed ERE-dependent transcription approximately 3-fold while having little if any effect on transcription of the control reporter (FIG. 15A).

[2] = test system: ERE-dependent transcription in HeLa cells; assay: as above; assay type: cell-based, human; conditions: whole FBS
Experimental: as §1, with “cells were maintained in stripped medium for 48 h before transfection and the addition of 17β-estradiol” left out
ERRα Activates Transcription in HeLa Cells: Our finding that ERRα represses transcription from an ERE-controlled promoter was somewhat surprising since most reports in the literature conclude that ERR family members function as transcriptional activators of ERE-dependent transcription (17-31). […]

[3] = test system: ERE-independent TK-luc transcription in MCF-7 cells; assay: pTK-luc ERE-negative control luciferase reporter, transient transfection; assay type: cell-based, human; conditions: whole FBS, 48 h
Experimental: as §1

[4] = 0.12 or 0.25 μg expression plasmid, whole FBS, 48 h

CC1(C)C(C(Cl)Cl)C2(Cl)C(Cl)C(Cl)C1(Cl)C2(Cl)Cl (centres unmarked) [toxaphene]
Effect on ERRα activity (literature) (ERRα): decrease the activity of ERRα

4-hydroxytamoxifen
Effect on ERRγ (literature) (ERRγ): selectively antagonizes ERRγ

ClC1=C(Cl)C2(Cl)C3C(Cl)C(Cl)CC3C1(Cl)C2(Cl)Cl (centres unmarked) [chlordane]
Effect on ERRα activity (literature) (ERRα): decrease the activity of ERRα

C[C@]12CC[C@@H]3c4ccc(O)cc4C[C@@H](CCCCCCCCC[S+]([O-])CCCC(F)(F)C(F)(F)F)[C@H]3[C@@H]1CC[C@@H]2O (some centres unmarked) [ICI-182,780, reference compound]
Effect of anti-estrogen on ERE-dependent activity ([1]; 1×10^−6 M, charcoal-stripped FBS plus 1×10^−8 M E2): extremely sensitive
Effect of anti-estrogen on E2 induction of ERE reporter ([1]; 1×10^−6 M, charcoal-stripped FBS plus 1×10^−10 M E2): completely eliminated
Effect of anti-estrogen on ERE-dependent activity ([1]; 1×10^−6 M, charcoal-stripped FBS, no exogenous E2): largely ablated
Effect of anti-estrogen on ERE-dependent activity ([1]; 1×10^−6 M, medium with whole FBS): extremely sensitive
Effect of anti-estrogen on ERE-dependent activity [2]: completely insensitive

B1: ERRα: wild-type human ERRα1 overexpressed from plasmid pcDNA3.1-hERRα1 (protein)
chain: MSSQVVGIEPLYIKAEPASPDSPKGSSETETEPPVALAPGPAPTRCLPGHKEEEDGEGAGPGEQGGGKLVLSSLPKRLCLVCGDVASGYHYGVASCEACKAFFKRTIQGSIEYSCPASNECEITKRRRKACQACRFTKCLRVGMLKEGVRLDRVRGGRQKYKRRPEVDPLPFPGPFPAGPLAVAGGPRKTAAPVNALVSHLLVVEPEKLYAMPDPAGPDGHLPAVATLCDLFDREIVVTISWAKSIPGFSSLSLSDQMSVLQSVWMEVLVLGVAQRSLPLQDELAFAEDLVLDEEGARAAGLGELGAALLQLVRRLQALRLEREEYVLLKALALANSDSVHIEDAEAVEQLREALHEALLEYEAGRAGPGGGAERRRAGRLLLTLPLLRQTAGKVLAHFYGVKLEGKVPMHKLFLEMLEAMMD
Repression of ERE-dependent transcription by overexpression [1, 4]: 3-4 fold
Inhibition of E2-mediated activation of transcription by overexpression ([1]; charcoal-stripped FBS plus 1×10^−8 M E2): no longer inhibited
Inhibition of E2-mediated activation of transcription by overexpression ([1]; charcoal-stripped FBS plus 1×10^−10 M E2): 3-5 fold
Repression of ERE-dependent transcription by overexpression ([1]; charcoal-stripped FBS, no exogenous E2): approximately 3 fold
Activation of transcription from p3xERE-TK-luc by overexpression ([2]; 48 h): 2.5 fold

B2: ERRα1P-box: ERRα1 variant with E97G/A98S/A101V in the P-box, unable to bind DNA (protein)
chain: MSSQVVGIEPLYIKAEPASPDSPKGSSETETEPPVALAPGPAPTRCLPGHKEEEDGEGAGPGEQGGGKLVLSSLPKRLCLVCGDVASGYHYGVASCGSCKVFFKRTIQGSIEYSCPASNECEITKRRRKACQACRFTKCLRVGMLKEGVRLDRVRGGRQKYKRRPEVDPLPFPGPFPAGPLAVAGGPRKTAAPVNALVSHLLVVEPEKLYAMPDPAGPDGHLPAVATLCDLFDREIVVTISWAKSIPGFSSLSLSDQMSVLQSVWMEVLVLGVAQRSLPLQDELAFAEDLVLDEEGARAAGLGELGAALLQLVRRLQALRLEREEYVLLKALALANSDSVHIEDAEAVEQLREALHEALLEYEAGRAGPGGGAERRRAGRLLLTLPLLRQTAGKVLAHFYGVKLEGKVPMHKLFLEMLEAMMD
Induction of ERE-dependent transcription by overexpression ([1]; whole FBS, 48 h): 2-3 fold

B3: ERRα1413A/418A: ERRα1 variant with alanine in place of leucine at amino acids 413 and 418 (NR box) (protein)
chain: MSSQVVGIEPLYIKAEPASPDSPKGSSETETEPPVALAPGPAPTRCLPGHKEEEDGEGAGPGEQGGGKLVLSSLPKRLCLVCGDVASGYHYGVASCEACKAFFKRTIQGSIEYSCPASNECEITKRRRKACQACRFTKCLRVGMLKEGVRLDRVRGGRQKYKRRPEVDPLPFPGPFPAGPLAVAGGPRKTAAPVNALVSHLLVVEPEKLYAMPDPAGPDGHLPAVATLCDLFDREIVVTISWAKSIPGFSSLSLSDQMSVLQSVWMEVLVLGVAQRSLPLQDELAFAEDLVLDEEGARAAGLGELGAALLQLVRRLQALRLEREEYVLLKALALANSDSVHIEDAEAVEQLREALHEALLEYEAGRAGPGGGAERRRAGRLLLTLPLLRQTAGKVLAHFYGVKLEGKVPMHKAFLEMAEAMMD
Repression of ERE-dependent transcription by overexpression [1, 4]: 5-8 fold
Repressive effect on ERE-dependent transcription normalized to the control ([1]; normalized to pTK-luc control): 10-16 fold
Up-regulation of ERE-independent TK-luc transcription by overexpression [3]: approximately 2 fold
